Assay results as given in patent US20220160767A1 (CHILDREN S NATIONAL MEDICAL CENTER, published 2022).

Target: T1, HLA-DRB1*11:01 (human, UniProt P01911 30-227; P01903 26-216)
T1 construct: whole, on cells; Class II molecule on irradiated, partially HLA-matched PHA-blasts; Only the DRB1 allele is printed; also called HLA-DR11
Experiment: restriction testing: IFN-γ ELISpot of CSTs with partially HLA-matched PHA-blasts pulsed with peptide (indirect read-out)

## LRGHLRIAGHHLGRC (also called LRGHLRIAGHHLGRC) [Membrane peptide 37 (AA 145-160)]
  binding result: binds
